The experiment has as its target IL12 receptor on pre-activated mouse CD8+ T cells (mouse) (UniProt Q60837). The experiment is described as follows: cell-based or functional assay.

B1: Mouse IL12 (unmodified) (ligand)
chain 1: RVIPVSGPARCLSQSRNLLKTTDDMVKTAREKLKHYSCTAEDIDHEDITRDQTSTLKTCLPLELHKNESCLATRETSSTTRGSCLPPQKTSLMMTLCLGSIYEDLKMYQTEFQAINAALQNHNHQQIILDKGMLVAIDELMQSLNHNGETLRQKPPVGEADPYRVKMKLCILLHAFSTRVVTINRVMGYLSSA
chain 2: MWELEKDVYVVEVDWTPDAPGETVNLTCDTPEEDDITWTSDQRHGVIGSGKTLTITVKEFLDAGQYTCHKGGETLSHSHLLLHKKENGIWSTEILKNFKNKTFLKCEAPNYSGRFTCSWLVQRNMDLKFNIKSSSSSPDSRAVTCGMASLSAEKVTLDQRDYEKYSVSCQEDVTCPTAEETLPIELALEARQQNKYENYSTSFFIRDIIKPDPPKNLQMKPLKNSQVEVSWEYPDSWSTPHSYFSLKFFVRIQRKKEKMKETEEGCNQKGAFLVEKTSTEVQCKGGNVCVQAQDRYYNSSCSKWACVPCRVRS
For the molecule B1, the EC50 of STAT4 phosphorylation in pre-activated mouse CD8+ T cells (flow cytometry) was 0.0163 nM.

B2: IL12Rβ1-VP-IL12 (protein, part only; not given: IL12Rβ1 mask domains and linker, part only)
chain, part: VPLSLYSRVIPVSGPARCLSQSRNLLKTTDDMVKTAREKLKHYSCTAEDIDHEDITRDQTSTLKTCLPLELHKNESCLATRETSSTTRGSCLPPQKTSLMMTLCLGSIYEDLKMYQTEFQAINAALQNHNHQQIILDKGMLVAIDELMQSLNHNGETLRQKPPVGEADPYRVKMKLCILLHAFSTRVVTINRVMGYLSSA
chain: MWELEKDVYVVEVDWTPDAPGETVNLTCDTPEEDDITWTSDQRHGVIGSGKTLTITVKEFLDAGQYTCHKGGETLSHSHLLLHKKENGIWSTEILKNFKNKTFLKCEAPNYSGRFTCSWLVQRNMDLKFNIKSSSSSPDSRAVTCGMASLSAEKVTLDQRDYEKYSVSCQEDVTCPTAEETLPIELALEARQQNKYENYSTSFFIRDIIKPDPPKNLQMKPLKNSQVEVSWEYPDSWSTPHSYFSLKFFVRIQRKKEKMKETEEGCNQKGAFLVEKTSTEVQCKGGNVCVQAQDRYYNSSCSKWACVPCRVRS
As to B2, the EC50 of STAT4 phosphorylation in pre-activated mouse CD8+ T cells, fold against unmodified IL12 turned out to be 80 fold and the fold decrease in STAT4 phosphorylation in pre-activated mouse CD8+ T cells, noncleaved construct against IL12 (FIG. 3C) was found to be 80 fold.

B3: IL12Rβ1-LS-IL12 (protein)
chain 1: QLGASGPGDGCCVEKTSFPEGASGSPLGPRNLSCYRVSKTDYECSWQYDGPEDNVSHVLWCCFVPPNHTHTGQERCRYFSSGPDRTVQFWEQDGIPVLSKVNFWVESRLGNRTMKSQKISQYLYNWTKTTPPLGHIKVSQSHRQLRMDWNVSEEAGAEVQFRRRMPTTNWTLGDCGPQVNSGSGVLGDIRGSMSESCLCPSENMAQEIQIRRRRRLSSGAPGGPWSDWSMPVCVPPEVLPQAGLLSGRSDNHGGGSGGGSRVIPVSGPARCLSQSRNLLKTTDDMVKTAREKLKHYSCTAEDIDHEDITRDQTSTLKTCLPLELHKNESCLATRETSSTTRGSCLPPQKTSLMMTLCLGSIYEDLKMYQTEFQAINAALQNHNHQQIILDKGMLVAIDELMQSLNHNGETLRQKPPVGEADPYRVKMKLCILLHAFSTRVVTINRVMGYLSSAHHHHHH
chain 2: MWELEKDVYVVEVDWTPDAPGETVNLTCDTPEEDDITWTSDQRHGVIGSGKTLTITVKEFLDAGQYTCHKGGETLSHSHLLLHKKENGIWSTEILKNFKNKTFLKCEAPNYSGRFTCSWLVQRNMDLKFNIKSSSSSPDSRAVTCGMASLSAEKVTLDQRDYEKYSVSCQEDVTCPTAEETLPIELALEARQQNKYENYSTSFFIRDIIKPDPPKNLQMKPLKNSQVEVSWEYPDSWSTPHSYFSLKFFVRIQRKKEKMKETEEGCNQKGAFLVEKTSTEVQCKGGNVCVQAQDRYYNSSCSKWACVPCRVRS
Regarding B3, the EC50 of STAT4 phosphorylation in pre-activated mouse CD8+ T cells, fold against unmodified IL12 came out at 80 fold and the fold decrease in STAT4 phosphorylation in pre-activated mouse CD8+ T cells, noncleaved construct against IL12 (FIG. 3C) was found to be 80 fold.
